Here are results for 94 variants from the supplement of paper PMC10567573.

B1: PTPN9 (parent)
chain: NKWTVQYNVSPLSWNVAVKFLMAR
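Note: lentivirally expressed fusions sorted by FACS into six bins by GFP to DsRed ratio, PSI derived from sequencing read proportions per bin multiplied by bin number.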

The variants in this data set derive from B1. Briefly: protein stability index of a GFP-peptide fusion (GPS, HEK-293T) (PSI 1-6); higher = more stable. As to conditions: c terminus: a fixed tail appended.
For the variant NKWTVQYNVSPLSWNVAVKFLMNR [A23N], the protein stability index turned out to be 2.54. As for NKWTVQYNVSPLSWNVAVKFLMIR [A23I], the protein stability index was found to be 2.44.

Take NKWTVQYNVSPLSWNVAVKFLMYR [A23Y]: the protein stability index amounted to 2.98. Take NKWTVQYNVSPLSWNVAVKFLMPR [A23P]: the protein stability index was 2.3. Next, NKWTVQYNVSPLSWNVAVKFLMQR [A23Q]: 2.55; NKWTVQYNVSPLSYNVAVKFLMAR [W14Y]: 2.01. As for NKWTVQYNVSPLSMNVAVKFLMAR [W14M], the figure is 2.75; as for NKWTVQYNVSPLSNNVAVKFLMAR [W14N], 2.06. As for NKWTVQYNVSPLSLNVAVKFLMAR [W14L], the figure is 2.71. Regarding NKWTVQYNVSPLSRNVAVKFLMAR [W14R], the protein stability index turned out to be 2.4. Consider NKWTVQYNVSPLSSNVAVKFLMAR [W14S], for which the protein stability index turned out to be 1.78. Turning to NKWTVQYNVSPLSKNVAVKFLMAR [W14K], the protein stability index came out at 2.24. For NKWTVQYNVSPLSQNVAVKFLMAR [W14Q], the protein stability index was 2.62. As for NKWTVQYNVSPLSPNVAVKFLMAR [W14P], the figure is 2.08.

On to NKWTVQYNVSPLSVNVAVKFLMAR [W14V], for which the protein stability index came to 2.4.

For NKWTVQYNVSPLSTNVAVKFLMAR [W14T], the protein stability index was determined as 1.93. Next, NKWTVQYNVSPLSWNVAVKFLMAF [R24F]: 1.41; NKWTVQYNVSPLSWNVAVKFLMAC [R24C]: 2.63; NKWTVQYNVSPLSWNVAVKFLMAN [R24N]: 3.31. Next, NKWTVQYNVSPLSWNVAVKFLMAK [R24K]: 2.18. As for NKWTVQYNVSPLSWNVAVKFLMAS [R24S], the figure is 1.83. For the variant NKWTVQYNVSPLSWNVAVKFLMAL [R24L], the protein stability index is 1.53. NKWTVQYNVSPLSWNVAVKFLMAW [R24W]: the protein stability index was found to be 3.09. Next, NKWTVQYNVSPLSWNVAVKFLMAY [R24Y]: 2.66; NKWTVQYNVSPLSWNVAVKFLMAH [R24H]: 2.82; NKWTVQYNVSPLSWNVAVKFLMAQ [R24Q]: 2.94. Next, NKWTVQYNVSPLSWNVAVKFLMAG [R24G]: 2.72; NKWTVQYNVSPLSWNVAVKFLMAA [R24A]: 3.97. Next, NKWTVQYNVSPLSWNVAVKFLMAP [R24P]: 1.23. Regarding NKWTVQYNVSPLSWNVAVKFLMAD [R24D], the protein stability index amounted to 2.41. Next, NKWTVQYNVSPLSWNVAVKFLMAV [R24V]: 2.97.

NKWTVQYNVSPLSWNVAVKFLMAT [R24T]: the protein stability index was found to be 2.27. Take NKWTVQYNVSPLSWNVAVKFLMAM [R24M]: the protein stability index is 2.65.

In the case of NKWTVQYNVSPLSWYVAVKFLMAR [N15Y], the protein stability index came out at 1.9. For the variant NKWTVQYNVSPLSWAVAVKFLMAR [N15A], the protein stability index is 3.46. Next, NKWTVQYNVSPLSWKVAVKFLMAR [N15K]: 4.23; NKWTVQYNVSPLSWEVAVKFLMAR [N15E]: 3.45. As for NKWTVQYNVSPLSWTVAVKFLMAR [N15T], the figure is 2.89; as for NKWTVQYNVSPLSWFVAVKFLMAR [N15F], 2.02.

Regarding NKWTVQYNVSPLSWIVAVKFLMAR [N15I], the protein stability index was found to be 3.96. For the variant NKWTVQYNVSPLSWLVAVKFLMAR [N15L], the protein stability index was 1.92. NKWTVQYNVSPLSWWVAVKFLMAR [N15W]: the protein stability index turned out to be 2.27. As for NKWTVQYNVSPLSWPVAVKFLMAR [N15P], the protein stability index amounted to 2.39. On to NKWTVQYNVSPLSWMVAVKFLMAR [N15M], for which the protein stability index was 2.53. As for NKWTVQYNVSPLSWNVAVKQLMAR [F20Q], the figure is 2.38; as for NKWTVQYNVSPLSWNVAVKGLMAR [F20G], 2.97. Next, NKWTVQYNVSPLSWNVAVKWLMAR [F20W]: 3.8; NKWTVQYNVSPLSWNVAVKNLMAR [F20N]: 2.25; NKWTVQYNVSPLSWNVAVKPLMAR [F20P]: 1.68. Next, NKWTVQYNVSPLSWNVAVKSLMAR [F20S]: 2.3; NKWTVQYNVSPLSWNVAVKHLMAR [F20H]: 1.67; NKWTVQYNVSPLSWNVAVKTLMAR [F20T]: 2.1. Take NKWTVQYNVSPLSWNVAVKDLMAR [F20D]: the protein stability index worked out at 1.97. For NKWTVQYNVSPLSWNVAVKKLMAR [F20K], the protein stability index was 1.4. Next, NKWTVQYNVSPLSWNVAVKRLMAR [F20R]: 3.62. As for NKWTVQYNVSPLSWNVAVKELMAR [F20E], the protein stability index turned out to be 2.68.

On to NKWTVQYNVSPLSWNVAVKILMAR [F20I], for which the protein stability index amounted to 2.27. In the case of NKWTVQYNVSPLSWNVAVKYLMAR [F20Y], the protein stability index is 2.94. Next, NKWTVQYNVSPLSWNVAVKCLMAR [F20C]: 1.68; NKWTVQYNVSPLSWNVAVKALMAR [F20A]: 3.35; NKWTVQYNVSPLSWNVAHKFLMAR [V18H]: 1.78. Next, NKWTVQYNVSPLSWNVANKFLMAR [V18N]: 2.21; NKWTVQYNVSPLSWNVAEKFLMAR [V18E]: 1.49; NKWTVQYNVSPLSWNVADKFLMAR [V18D]: 2.03.

Take NKWTVQYNVSPLSWNVATKFLMAR [V18T]: the protein stability index is 2.76. With NKWTVQYNVSPLSWNVAIKFLMAR [V18I], the protein stability index was determined as 2.62. As for NKWTVQYNVSPLSWNVAGKFLMAR [V18G], the figure is 1.8. As to NKWTVQYNVSPLSWNVARKFLMAR [V18R], the protein stability index came out at 2.08. As to NKWTVQYNVSPLSWNVALKFLMAR [V18L], the protein stability index came out at 2.72.

Turning to NKWTVQYNVSPLSWNVAYKFLMAR [V18Y], the protein stability index amounted to 2.04. As for NKWTVQYNVSPLSWNVAFKFLMAR [V18F], the protein stability index turned out to be 2.44. For NKWTVQYNVSPLSWNVASKFLMAR [V18S], the protein stability index is 2.94.

Turning to NKWTVQYNVSPLSWNVAQKFLMAR [V18Q], the protein stability index turned out to be 1.49. As for NKWTVQYNVSPLSWNVAAKFLMAR [V18A], the figure is 2.48; as for NKWTVQYNVSPLSWNVAWKFLMAR [V18W], 1.77.

As to NKWTVQYNVSPLSWNVAPKFLMAR [V18P], the protein stability index was found to be 1.28.

With NKWTVQYNVSPLSWNVACKFLMAR [V18C], the protein stability index amounted to 2.73. With NKWTVQYNVSPLSWNVAKKFLMAR [V18K], the protein stability index is 2.72.

Consider NKWTVQYNVSPLSWNVAVKFEMAR [L21E], for which the protein stability index is 1.9. Next, NKWTVQYNVSPLSWNVAVKFGMAR [L21G]: 1.73. With NKWTVQYNVSPLSWNVAVKFAMAR [L21A], the protein stability index stood at 3.37.

With NKWTVQYNVSPLSWNVAVKFPMAR [L21P], the protein stability index was determined as 1.26.

NKWTVQYNVSPLSWNVAVKFMMAR [L21M]: the protein stability index was 2.35. In the case of NKWTVQYNVSPLSWNVAVKFHMAR [L21H], the protein stability index was found to be 2.98. Next, NKWTVQYNVSPLSWNVAVKFKMAR [L21K]: 2.5; NKWTVQYNVSPLSWNVAVKFRMAR [L21R]: 3.22; NKWTVQYNVSPLSWNVAVKFTMAR [L21T]: 2.9. Regarding NKWTVQYNVSPLSWNVAVKFWMAR [L21W], the protein stability index was determined as 1.63. For the variant NKWTVQYNVSPLSWNVAVKFVMAR [L21V], the protein stability index is 3.01. With NKWTVQYNVSPLSWNVAVKFSMAR [L21S], the protein stability index was 3.66.

With NKWTVQYNVSPLSWNVAVKFYMAR [L21Y], the protein stability index came to 2.89. As for NKWTVQYNVSPLSWNVAVKFDMAR [L21D], the figure is 2.03. NKWTVQYNVSPLSWNVAVKFNMAR [L21N]: the protein stability index was determined as 1.72.

With NKWTVQYNVSPLSWNVAVKFIMAR [L21I], the protein stability index is 3.32.
